Results reported in the nanobody polyreactivity screen of Harvey et al. (2022).

Assay: yeast display, Sf9 membrane polyspecificity reagent, FACS + sequencing; frameworks hold sequencing errors
Procedure, shortened: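 Galactose induction of a Saccharomyces cerevisiae BJ5465 synthetic nanobody display library ran 36–48 hours. The cells were then stained for 1 hour at 4 °C with 10% biotinylated, detergent-solubilized Sf9 membrane reagent, pulled down on streptavidin microbeads and FACS-sorted into low and high (top ~1%) gates on expression and reagent-binding fluorescence. Labels for polyreactivity follow the gate of origin.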

Sequence	polyreactivity (PSR sort gate)
QVQLVESGGGLVQAGGSLRLSCAASGRTFNQYAMGWYRQAPGKVRELVAAISRPTGRTYYADSVKGRFTISRDNAKNTVYLQMNSLKPEDTAVYYCAKADNRSPVDNGFDYWGQVTQVTVSS	high polyreactivity
QVQLVESGGGLVQAGGSLRLSCAASGIIFSINAMGWDRQAPGKERELVAAISRSGGSTNYADSVKGRFTISRDNAKNTVYLQMNSLKPEDTAVYYCATVHRYSVWSHNYWGQGTQVTVAS	high polyreactivity
QVQLVESGGGLVQAGGSLRLSCAASGYTILTNAMGWYRQAPGKERELVADITSSGGSTYYADSVKGRFTISRDNAKNTVYLQMNSLKPEDTAVYYCAKRWYRNRYGYWGQGTQVTVSS	high polyreactivity
QVQLVESGGGLVQAGGSLRLICAASGIIFPSYAMGWYRQAPGKERELVAGISLSGGSTYYADSVKGRFTISRDNAKNTVYLQMNSLKPEDTAVYYCDTRNHYFRALRYGYWGQGTLVTVSS	high polyreactivity
QVQLVESGGGLVQAGGSLRLSCAASGRTFFGYAMGWYRQAPGTERELVAAINWGGASTYYADSVKGRFTISRDNAKNTVYLQMNSLKPEATAVYYCAADSVPSRPTYGRYDYWGQGTQVTVSS	low polyreactivity
QVQLVESGGGLVQAGGSLRLICAASGSTLVVNAMGWYRQAPGKERELVAAITSGGSTNYADSVKGRFTISRDNAKNTVYLQMNSLKPEDTAVYYCNAERGRSFWWAYDYWGQGTQVTVSS	low polyreactivity
QVQLVDSGGGLVQAGGSLRLSCAASGRIFFPNGMGWYRQAPGKERELVATISRIGGSTYYADSVKGRFTISRDNAMNTVYLQRNSLKPEDTAVYYCAAQYSYGVYWTLPYGYNYWGQGTQVTVSS	low polyreactivity
QVQLVESGGGLVQAGGSLRLSCAASGRTFGFNVMGWYRQAPGKERELVAAISWSGGSTYYADSVKGRFTISRENAKNTVYLQMNSLKPEDTAVYSCNKRYVHRYGYWGQGTQVTVTS	low polyreactivity
QVQLVESGGGLVQAGGSLRLSCAASGFTFYRYAMGWYRQAPGQEREVVAAIRKSGGSTYYADSVKGRFTISRDNAKTTVYLQMNSLKPEDTAVYYCAKRYATDGFGYWGQGTQVTVSS	high polyreactivity
QVQLVESGGGLVQAGGSLRLSCAASGRTFGVNAMGWYRQAPGKERELVAAISRSGGSTYYADSVKGRFTISRDNAKNTVYLQMNSLKPEDTAVYYCAKSYFGNHLTGFGYWGQGTQVTVSS	low polyreactivity
QVQLVESGGGLVQAGGILRLSCAASGRIFGPYTMGWYRQAPGKEREFVAAISRSGDSTYYADSVKGRFTISRDNAKNTVYLQMNSLKPEDTAVYYCAAKYGTRLSAYYYWGQGTQVTVSS	high polyreactivity
QVQLVESGGGLVQAGGILRLSCAASGRTYGGYAMGWYRQAPGKERELVASITSTGGTHYSDSVKGRFTISRDNAKNTVYLQMNSLKPEDTAVYYFAAGYYYWKYDYWGQGTQVTVSS	high polyreactivity
QVQLVESGGGLVQAGGSLRLSCAASGLTFKRYAMGWYRQAPGKERELVASITGNGGSTYYADSVKGRFTISRDNAKNTVYLQMNSLIPEDTAVYYCNSRRYVRTSQQPLYDYWGQVTQVTVSS	high polyreactivity
HVQLVESGGGLVQAGGSLRLSCAASGIIFWTYTMGWYRQAPGKERELVGAISSGGSTKYADSVKGRFTISRDNAKNTVYLQMNSLKPADTAVYYCNAEFAPWGSAYGHDQYDYWGQGTQVTVSS	low polyreactivity
QVQLVESGGGLVQAGGSLRLSCAPSGFTFYPYAMGWSRQAPGKERELVAAIRYSGGSTYYADSVKGRFTISRDNAKNTVYLQMNSLKPEATAVYYCAADGSNPWYRNSWSRYRFGYWGQGTQVTVSS	high polyreactivity
QVQLVESGGGLVQAGGSLSLSCAASGRIFNRNAMGWYRQAPGKEREFVAAISYSSGSTYYADSVKGRFTISRDNAKNTVYLQMNSLKPEDTAVYYCAAKVYNSRRNGYFGWTWGGYDYWGQGTQVTVSS	high polyreactivity
QVQLVESGGGLVQAGGSLRLSCAASGFTFWRNTMGWYRQAPGKEREFVAGISGSGGSTYYADSVKGRFTISRDNAKNTVYLQMNSLKPEDTAVYYCAAVYRFSRTFYTPGYDYWGQGTQVTVSS	high polyreactivity
